In publication PMC11470758:

T1: MBP-GlcR (MGlcR) (Paracoccus denitrificans) (UniProt A1BAC0)
T1 sequence: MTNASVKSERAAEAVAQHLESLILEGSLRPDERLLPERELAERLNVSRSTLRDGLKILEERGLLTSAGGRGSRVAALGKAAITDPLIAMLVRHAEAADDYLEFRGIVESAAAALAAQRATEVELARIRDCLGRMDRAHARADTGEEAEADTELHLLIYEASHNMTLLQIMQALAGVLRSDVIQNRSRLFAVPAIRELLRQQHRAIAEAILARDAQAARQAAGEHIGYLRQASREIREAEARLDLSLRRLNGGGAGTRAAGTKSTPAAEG

T2: MBP-GlcR (MGlcR) (Paracoccus denitrificans, UniProt A1BAC0 1-269)
T2 sequence: T1 sequence

B1: fragment #3 (dsDNA)
DNA 1: GTCCAGAAAAATACCGATTGACTAATGTGGTCTGAAAATTATACCAAGAATGCAGGGCAG
DNA 2: CTGCCCTGCATTCTTGGTATAATTTTCAGACCACATTAGTCAATCGGTATTTTTCTGGAC

Legend:
[1] = target: T1, MBP-GlcR (MGlcR) (Paracoccus denitrificans); experiment: EMSA; settings: EMSA buffer, salt, pH and temperature not given in the material
MBP-GlcR (MGlcR) = target: T2, MBP-GlcR (MGlcR); experiment: EMSA

Row | Molecule | binding [1] | binding result (MBP-GlcR (MGlcR))
1 | CTTTCTAGATCACGCACGCGCCAGGATGCCCGCATCGGGCCGGGGCATGGCAATACCGGACAAGCTCTCCTCCCTTGGTCGAACGGCAGGCCCGTGTCCTGCCCTGCATTCTTGGTATAATTTTCAGACCACATTAGTCAATCGGTATTTTTCTGGACCGACACGCCCGTCCTGTGCTTACATGGCAGGGATCCGACAACCGCATGAGCGCCCATGACCAACGCATCCGTGAAATCCGAACGCGCCGCCGAGGCCGTGGCCCAGTGAGAATTCATATC (double strand) [pden4399-4400 intergenic sequence] | binds | 
2 | B1 |  | binds
